Source: patent US20240255522A1

Experiments:
[1] = biological target: MHCII (DR); experiment: competition ELISA
[2] = biological target: HLA-DRB1*01:01 MHCII molecule (human); experiment: competition ELISA; 25 nM huCLIP-bio
[3] = biological target: HLA-DRB1*01:01 MHCII molecule (human); experiment: competition ELISA; 50 nM huCLIP-bio
[4] = biological target: HLA-DRB1*01:01 MHCII molecule (human); experiment: competition ELISA; 25 nM, pp65 reference
[5] = biological target: HLA-DRB1*01:01 MHCII molecule (human); experiment: competition ELISA; 50 nM, pp65 reference
[6] = biological target: MHCII (DR); experiment: competition

Row | Substance | IC50 [1] [nM] | IC50 [6] [nM] | other results
1 | mCLIP | 268 |  | IC50 [2]: 162 nM; IC50 [3]: 429 nM; IC50 [4]: 3.47 nM; IC50 [5]: 7.83 nM
2 | LASV RNAP |  | 517 | 
3 | OVA (323-339) | 10700 |  | 
4 | LCMV RNAP |  | 287 | 
5 | MOG (35-55) | 2050 |  | 
6 | VV HP (23-37) | 2020 |  | 
7 | LCMV NP (201-215) |  | 1220 | 
8 | VETF (275-289) | 983 |  | 
